Experimental data as given in US20160024176A1.

Biological target: V158 high affinity variant of CD16a (FcγRIIIa) (UniProt P08637)
Assay: HTRF competition with IgG-d2 on HEK293 cells expressing terbium-labelled FcγRIIIa V158

EC50: 220 nM
Substance: human IgG1 monoclonal antibody
